The values below are quoted from earlier work in article PMC4865444.

As usually defined, the pKd is the Kd on a negative log10 scale, so that one unit is a factor of ten.

pKd: −log10 of the molar value.

Data set [1] concerns the target Nef SF2 (Human immunodeficiency virus 1) (UniProt P03407).
For data set [2], the target named is Nef NL4-3 (Human immunodeficiency virus 1) (UniProt P04324).

Sequence of UniProt P03407 (P03407 2-210): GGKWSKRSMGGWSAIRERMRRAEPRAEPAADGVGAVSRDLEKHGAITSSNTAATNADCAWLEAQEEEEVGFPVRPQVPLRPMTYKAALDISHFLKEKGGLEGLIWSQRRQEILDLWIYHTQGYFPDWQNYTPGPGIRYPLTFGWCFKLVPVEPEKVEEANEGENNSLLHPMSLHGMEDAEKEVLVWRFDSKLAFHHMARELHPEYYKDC

For the substance Hck SH3 (from UniProt P08631), the negative-log Kd (pKd) in data set [1] was 6.19; in data set [2], 5.85.
